Experimental data reported in patent US20190315864A1 (SUZHOU ALPHAMAB, published 2019).

Experiments:
CTLA4-Fc fusion protein [1] = target: T1, CTLA4-Fc fusion protein (human, biotinylated where used as CTLA4-Fc-Biotin (Examples 5.1-5.3)); test: competitive ELISA, CTLA4-Fc coated, VHH series with 250 ng/mL CD80-Fc-Biotin
T1 construct: expressed in HEK293 cells; also called human CTLA4-Fc protein; CTLA4-Fc antigen protein
Description: (§1) SA-HRP (purchased from Sigma) was added and allowed to react for 1 hour at room temperature. After adding chromogenic solution, absorbance was read at 405 nm wavelength.

Mouse CTLA4-Fc protein [2] = target: T2, Mouse CTLA4-Fc protein (mouse, biotinylated (mCTLA4-Fc-Biotin)); test: ELISA, VHH coated 0.5 µg/well, mCTLA4-Fc-Biotin, SA-HRP
T2 construct: also called mCTLA4-Fc-Biotin; mouse CTLA4-Fc fusion protein
Description: (§2) Thereafter, SA-HRP (purchased from Sigma) was added, and the mixture was reacted at room temperature for 1.5 hours. After washing, chromogenic agent was added and the absorbance was read at 405 nm.

Mouse CTLA4-Fc protein [3] = target: T2, Mouse CTLA4-Fc protein; test: ELISA, VHH coated 0.5 µg/well, mouse CTLA4-Fc (biotinylated), SA-HRP; blank 0.027
Description: as §2

CTLA4-Fc fusion protein [4] = target: T1, CTLA4-Fc fusion protein; test: competitive ELISA: CD80-Fc-Biotin signal on coated CTLA4-Fc with 500 ng VHH/well; competitor CD80-Fc-Biotin
Description: as §1

CTLA4-Fc fusion protein [5] = target: T1, CTLA4-Fc fusion protein; test: ELISA OD ratio, value equals OD(CTLA4)/OD(Fc)
Description: (§3) Plates were coated with CTLA4-Fc fusion protein overnight at 4° C. and 10 ng of the heavy chain single-domain antibody obtained in Example 2.1 (the control was a single domain antibody not binding to the CTLA4-Fc protein) was added to each well and allowed to react for 1 hour at room temperature. After washing, primary antibody anti-His tag antibody (purchased from Beijing Kangwei Century Biotechnology Co., Ltd.) was added and reacted for 1 hour at room temperature. After washing, a secondary goat anti-mouse horseradish peroxidase-labeled antibody (Yiqiao Shenzhou, Cat: SSA007200) was added and reacted for 1 hour at room temperature. After washing, chromogenic agent was added and the absorbance was read at 405 nm.
(§4) Plates were coated with Fc protein overnight at 4° C. and 10 ng of the heavy chain single domain antibody obtained in Example 2.1 was added to each well (control was a single domain antibody against other unrelated targets) and allowed to react for 1 hour at room temperature. After washing, an rabbit anti-human Fc antibody (purchased from Shanghai Pu Xin Biotechnology Co., Ltd.) was added and reacted for 1 hour at room temperature. After washing, goat anti-rabbit horseradish peroxidase labeled antibody (purchased from Shanghai Pu Xin Biotechnology Co., Ltd.) was added and reacted at room temperature for 1 hour. After washing, chromogenic agent was added and the absorbance was read at 405 nm.

Fc protein = target: T3, Fc protein; test: ELISA, Fc protein coated, 10 ng VHH/well
T3 construct: Counter-screen for the Fc part of CTLA4-Fc
Description: as §4

CTLA4-Fc fusion protein [6] = target: T1, CTLA4-Fc fusion protein; test: ELISA OD ratio, value equals OD(CTLA4)/OD(blank)
Description: as §3

CTLA4-Fc fusion protein [7] = target: T1, CTLA4-Fc fusion protein; test: ELISA, CTLA4-Fc coated, 10 ng VHH/well
Description: as §3

CTLA4-Fc fusion protein [8] = target: T1, CTLA4-Fc fusion protein; test: ELISA, VHH coated 0.5 µg/well, dilution series of CTLA4-Fc, anti-human IgG-Fc HRP; antibody No. C27
Description: (§5) The plates were coated with the obtained CTLA4 heavy chain single-domain antibody at 0.5 μg/well overnight at 4° C. followed by addition of a gradient dilution series of CTLA4-Fc fusion protein and allowed to react for 1 hour at room temperature. After washing, goat anti-human IgG-Fc horseradish peroxidase labeled antibody (lakepharma) was added and allowed to react for 1 hour at room temperature. After washing, horseradish peroxidase c chromogenic solution was added and the absorbance was read at a wavelength of 405 nm.

CTLA4-Fc fusion protein [9] = target: T1, CTLA4-Fc fusion protein; test: ELISA, VHH coated 0.5 µg/well, dilution series of CTLA4-Fc, anti-human IgG-Fc HRP; antibody No. C1
Description: as §5

CTLA4-Fc fusion protein [10] = target: T1, CTLA4-Fc fusion protein; test: ELISA, VHH coated 0.5 µg/well, dilution series of CTLA4-Fc, anti-human IgG-Fc HRP; antibody No. 145 (printed as No. 14)
Description: as §5

CTLA4-Fc fusion protein [11] = target: T1, CTLA4-Fc fusion protein; test: ELISA, VHH coated 0.5 µg/well, dilution series of CTLA4-Fc, anti-human IgG-Fc HRP; antibody No. 155
Description: as §5

B1: CTLA4 heavy chain single domain antibody No. C27 (VHH)
VHH: QVQLQESGGGSVQAGGSLRLSCAASGYIYSAYCMGWFRQAPGKERVGVAAISIGGGSTYYADSVKGRFTISQDNAKNTLYLQMNSLKPEDTAMYYCAADVIPTETCLGGSWSGPFGYWGQGTQVTVSS
notes: Camel VHH expressed in E. coli (PET32b), nickel-purified
What does the source list for B1?
IC50 (CTLA4-Fc fusion protein [1]): ~0.731 µg/mL; binding result (Mouse CTLA4-Fc protein [2]): no binding; OD (against mouse CTLA4) (Mouse CTLA4-Fc protein [3]): 0.021 OD405; OD (CTLA4-Fc fusion protein [4]): 0.04 OD405; ODa/OD blank (CTLA4-Fc fusion protein [5]): 26.7; OD (against Fc) (Fc protein): 0.049 OD405; ODa/ODb (CTLA4-Fc fusion protein [6]): 46.8; OD (against CTLA4) (CTLA4-Fc fusion protein [7]): 1.31 OD405; EC50 (CTLA4-Fc fusion protein [8]): ~0.093 µg/mL

B2: CTLA4 heavy chain single domain antibody No. C1 (VHH)
VHH: QVQLQESGGGSVQAGGSLGLSCAASGYIYSAYCMGWFRQAPGKEREGVAAIYLGGGSTYYADSVKGRFTISQDIAKNTLYLQMNSLKPEDTAMYSCAADVIPTETCLGGSWSGPFGYWGQGTQVTVSS
notes: Camel VHH expressed in E. coli (PET32b), nickel-purified, detected by anti-His tag antibody
Which IC50 (CTLA4-Fc fusion protein [1]) does the source give for B2 here?
The IC50 was 0.852 µg/mL.

Does B2 bind (Mouse CTLA4-Fc protein [2])?
Result: no binding

And the “OD (against mouse CTLA4)” value (Mouse CTLA4-Fc protein [3])?
Its value is 0.042 OD405.

And the OD (CTLA4-Fc fusion protein [4])?
The OD was 0.054 OD405.

What about the ODa/OD blank (CTLA4-Fc fusion protein [5]) of the same binder?
The ODa/OD blank was 22.7.

What about the “OD (against Fc)” value (Fc protein) of the same binder?
Its value is 0.053 OD405.

And the ODa/ODb (CTLA4-Fc fusion protein [6])?
The ODa/ODb was 42.9.

What about the “OD (against CTLA4)” value (CTLA4-Fc fusion protein [7]) of the same binder?
The value was 1.2 OD405.

What about the EC50 (CTLA4-Fc fusion protein [9]) of the same binder?
Its EC50 is ~0.123 µg/mL.

B3: CTLA4 heavy chain single domain antibody No. 145 (VHH)
VHH: QVQLQESGGGSVQAGGSLRLSCAASGYTYSSYSMGWFRQAAGKEREGVAAIDSDGSTSYADSVKGRFTISQDNAKNTLYLQMNSLEPEDTAMYYCAATAGWYAARHALSPLFFGYWGQGTQVTVSS
notes: as for B1
With B3 as the binder, how does the IC50 (CTLA4-Fc fusion protein [1]) read?
The IC50 was ~1.95 µg/mL.

Does B3 bind (Mouse CTLA4-Fc protein [2])?
Result: no binding

What about the “OD (against mouse CTLA4)” value (Mouse CTLA4-Fc protein [3]) of the same binder?
The value was 0.026 OD405.

And the OD (CTLA4-Fc fusion protein [4])?
The OD was 0.597 OD405.

And the ODa/OD blank (CTLA4-Fc fusion protein [5])?
The ODa/OD blank was 22.9.

What about the “OD (against Fc)” value (Fc protein) of the same binder?
The value was 0.065 OD405.

And the ODa/ODb (CTLA4-Fc fusion protein [6])?
Its ODa/ODb is 53.1.

And the EC50 (CTLA4-Fc fusion protein [10])?
The EC50 was ~0.05 µg/mL.

What about the “OD (against CTLA4)” value (CTLA4-Fc fusion protein [7]) of the same binder?
The value was 1.49 OD405.

B4: CTLA4 heavy chain single domain antibody No. 155 (VHH)
VHH: QVQLQESGGGPVQAGGSLRLSCAVSKYPYSGSCMGWFRQAPGKEREGVAAMFTGTGSTYYADSVKGRFTISQNVAKNTLDLQMNSLKPEDTAMYYCAVDLLPRSTRCLDYGLRTYNYWGQGTQVTVSS
notes: as for B1
How did the IC50 (CTLA4-Fc fusion protein [1]) turn out when B4 was run?
Its IC50 is ~4.69 µg/mL.

Does B4 bind (Mouse CTLA4-Fc protein [2])?
Result: no binding

What about the “OD (against mouse CTLA4)” value (Mouse CTLA4-Fc protein [3]) of the same binder?
The value was 0.032 OD405.

What about the OD (CTLA4-Fc fusion protein [4]) of the same binder?
Its OD is 0.746 OD405.

And the ODa/OD blank (CTLA4-Fc fusion protein [5])?
Its ODa/OD blank is 33.8.

What about the “OD (against Fc)” value (Fc protein) of the same binder?
Its value is 0.051 OD405.

What about the ODa/ODb (CTLA4-Fc fusion protein [6]) of the same binder?
The ODa/ODb was 61.6.

What about the “OD (against CTLA4)” value (CTLA4-Fc fusion protein [7]) of the same binder?
The value was 1.72 OD405.

What about the EC50 (CTLA4-Fc fusion protein [11]) of the same binder?
The EC50 was ~0.013 µg/mL.
